Data published in patent publication US20250121104A1 (FUSION PHARMACEUTICALS, published 2025).

B1: QD6 IgG (antibody, V domains shown)
VH: QVQLVQSGAEVKKPGSSVKVSCKASGGTFSDNDFSWVRQAPGQGLEWMGAIVAVVRTETYAQKFQDRVKITADISTRTTYMELSSLRSEDTAVYYCARRLMSAISGPGAPLLMWGQGTLVTVSS
VL: QSALTQPRSVSGSPGQSVTISCTGTSSDVGGYNYVSWYQQHPGKAPKLMIYDVSERPSGVPDRFSGSKSGNTASLTISGLQAEDEADYYCFSYTSSDTLEIFGGGTKLTVL
notes: also called anti-EGFR antibody clone QD6
B2: B09/IgG single-arm control antibody (bispecific antibody, part only; not given: non-binding control arm, V domains shown, part only)
VH: QVQLVQSGAEVKKPGASVKVSCKASGYTFTDYYIHWVRQATGQGLEWMGWMNPNSGNTGYAQKFQGRVTMTRDTSISTAYMELSSLRSEDTAVYYCARGQGYTHSWGQGTMVTVSS
VL: DIQMTQSPSTLSASVGDRVTITCRASEGIYHWLAWYQQKPGKAPKLLIYKASSLASGVPSRFSGSGSGTEFTLTISSLQPDDFATYYCQQYSNYPPTFGGGTKLEIK
B3: QD6/B09-57 DuetMab (bispecific antibody, V domains shown)
VH 1: QVQLVQSGAEVKKPGSSVKVSCKASGGTFSDNDFSWVRQAPGQGLEWMGAIVAVVRTETYAQKFQDRVKITADISTRTTYMELSSLRSEDTAVYYCARRLMSAISGPGAPLLMWGQGTLVTVSS
VL 1: QSALTQPRSVSGSPGQSVTISCTGTSSDVGGYNYVSWYQQHPGKAPKLMIYDVSERPSGVPDRFSGSKSGNTASLTISGLQAEDEADYYCFSYTSSDTLEIFGGGTKLTVL
VH 2: QVQLVQSGAEVKKPGASVKVSCKASGYTFTDYYIHWVRQATGQGLEWMGWMNPNSGNTGYAQKFQGRVTMTRDTSISTAYMELSSLRSEDTAVYYCARGQGYTHSWGQGTMVTVSS
VL 2: DIQMTQSPSTLSASVGDRVTITCRASEGIYHWLAWYQQKPGKAPKLLIYKASSLASGVPSRFSGSGSGTEFTLTISSLQPDDFATYYCQQYSNYPPTFGGGTKLEIK
notes: also called QD6/B09 DuetMab; QD6/B09-AlexaFluor647

How the values were obtained:
[1] = biological target: T1, Semaphorin 3a (UniProt Q14563 21-771, limits assumed); experiment: ELISA, antigen coated at 1 µg/mL, antibody titrated from 10 µg/mL
T1 sequence (looked up): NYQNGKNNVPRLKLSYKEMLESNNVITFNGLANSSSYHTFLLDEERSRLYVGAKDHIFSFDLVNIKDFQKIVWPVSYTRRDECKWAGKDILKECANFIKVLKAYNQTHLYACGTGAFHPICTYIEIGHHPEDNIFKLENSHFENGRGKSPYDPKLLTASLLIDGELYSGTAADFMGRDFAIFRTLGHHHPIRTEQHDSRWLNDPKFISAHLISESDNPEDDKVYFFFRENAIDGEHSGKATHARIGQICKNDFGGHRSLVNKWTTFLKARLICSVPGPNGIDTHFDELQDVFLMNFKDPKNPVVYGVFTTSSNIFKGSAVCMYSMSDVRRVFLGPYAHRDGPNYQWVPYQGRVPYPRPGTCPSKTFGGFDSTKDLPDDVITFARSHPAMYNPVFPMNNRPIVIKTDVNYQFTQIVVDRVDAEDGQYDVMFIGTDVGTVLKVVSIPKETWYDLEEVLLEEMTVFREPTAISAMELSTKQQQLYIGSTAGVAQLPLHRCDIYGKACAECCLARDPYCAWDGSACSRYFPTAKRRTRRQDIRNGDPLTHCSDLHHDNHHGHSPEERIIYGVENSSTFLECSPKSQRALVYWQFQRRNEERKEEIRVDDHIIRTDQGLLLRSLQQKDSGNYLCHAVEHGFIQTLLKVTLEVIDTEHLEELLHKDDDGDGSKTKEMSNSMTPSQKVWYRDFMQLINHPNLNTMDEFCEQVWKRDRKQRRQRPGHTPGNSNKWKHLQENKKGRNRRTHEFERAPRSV
Procedure: (§1) Specificity for EGFR and cMET species paralogs and closely related family members was determined by ELISA. Briefly, antigen solutions were prepared in PBS at 1 μg/mL and 50 microliters was coated onto half area ELISA assay plates. Plates were washed and blocked with 1% BSA in PBS containing 0.005% Tween-20 (PBS-T) for one hour at room temperature. […] Wells were incubated with 50 microliters of the indicated primary antibodies diluted in PBS-T in a 1:3 dilution series, starting at 10 μg/mL and ending at 0.002 μg/mL, except for the HER4 binding mAb control, MAB1131, for which the series started at 1 μg/mL. The wells were washed 4 times in PBS-T, then 50 μl of goat anti-human Fab HRP-labeled secondary antibody, diluted 1:5000 in PBS-T, was added to each well and incubated for one hour at room temperature. […] 50 microliters of TMB stop solution was added to all wells and the absorbance was read at 450 nm on a SpectraMax M5 microplate reader. Data were analyzed in the SoftMax Pro 5 software and plotted using GraphPad Prism 7 graphing software.
(§2) To determine the species cross reactivity, ELISA assays were carried out as described above.

[2] = biological target: mouse cMET (recombinant) (mouse, UniProt P16056 25-929, limits assumed); experiment: as above
Procedure: as §1, §2

[3] = biological target: T2, Ron (CD136) (UniProt Q04912 25-957, limits assumed); experiment: as above
T2 sequence (looked up): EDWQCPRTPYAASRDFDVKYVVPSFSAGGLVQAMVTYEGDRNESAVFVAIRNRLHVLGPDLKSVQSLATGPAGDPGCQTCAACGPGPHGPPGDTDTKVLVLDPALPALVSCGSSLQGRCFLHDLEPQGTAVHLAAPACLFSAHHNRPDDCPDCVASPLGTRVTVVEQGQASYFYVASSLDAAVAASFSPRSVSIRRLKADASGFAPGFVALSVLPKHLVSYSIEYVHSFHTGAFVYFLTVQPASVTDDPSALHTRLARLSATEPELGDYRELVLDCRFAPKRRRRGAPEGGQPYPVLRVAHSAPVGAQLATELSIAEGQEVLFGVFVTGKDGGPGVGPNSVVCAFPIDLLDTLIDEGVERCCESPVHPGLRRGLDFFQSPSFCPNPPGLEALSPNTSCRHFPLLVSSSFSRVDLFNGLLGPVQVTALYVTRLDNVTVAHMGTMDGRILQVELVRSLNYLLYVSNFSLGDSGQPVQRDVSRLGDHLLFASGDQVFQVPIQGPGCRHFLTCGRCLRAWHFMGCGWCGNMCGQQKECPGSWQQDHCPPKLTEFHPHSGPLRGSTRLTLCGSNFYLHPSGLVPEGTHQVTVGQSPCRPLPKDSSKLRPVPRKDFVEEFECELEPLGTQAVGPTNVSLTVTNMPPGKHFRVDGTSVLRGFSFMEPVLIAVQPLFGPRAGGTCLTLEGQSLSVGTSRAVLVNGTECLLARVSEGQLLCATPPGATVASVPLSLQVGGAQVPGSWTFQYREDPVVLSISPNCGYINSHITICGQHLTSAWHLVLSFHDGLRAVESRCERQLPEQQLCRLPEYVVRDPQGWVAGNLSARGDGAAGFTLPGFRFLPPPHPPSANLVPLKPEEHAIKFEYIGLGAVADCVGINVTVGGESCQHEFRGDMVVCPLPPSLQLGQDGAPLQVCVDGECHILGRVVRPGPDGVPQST
Procedure: as §1, §2

[4] = biological target: c-MET receptor on the cell surface (H1975 cells) (UniProt P08581); experiment: cell-based or functional assay
[5] = biological target: T3, mouse EGFR (recombinant) (mouse, UniProt Q01279 25-647); experiment: SPR (BIAcore T200), antibody captured on anti-human IgG, soluble monomeric antigen as analyte, 25 C, 1:1 fit
T3 construct: also called murine EGFR
Procedure: (§3) Mouse anti-human IgG was immobilized on a CM4 sensor chip with a final surface density of ˜2000 resonance units (RUs). A reference flow cell surface was also prepared on this sensor chip using identical immobilization protocol. Test and control article antibodies were prepared at 5-20 nM in instrument buffer (HBS-EP buffer; 0.01M HEPES, pH 7.4, 0.15M NaCl, 3 mM EDTA, and 0.005% P-20), along with 3-fold serial dilutions of purified EGFR (0.27-200 nM human, 0.4-900 nM cyno, and 4-1000 nM murine) or cMET proteins (0.27-66 nM human and 0.27-22 nM cyno) in instrument buffer. A sequential approach was utilized for kinetic measurements. Antibodies were first injected over the capture surface, at a flow rate of 10 μL/minute. Once the binding of the captured antibody stabilized, a single concentration of the analyte was injected over both capture and reference surfaces, at a flow rate of 75 μL/minute. The resulting binding response curves yielded the association phase data. Following the injection of analyte, the flow was then switched back to instrument buffer for 15 minutes to permit the collection of dissociation phase data, followed by a 1-minute pulse of 10 mM glycine, pH 1.5, to regenerate the antibody-captured surface on the chip. Binding responses against test and control article antibodies were recorded from duplicate injections of each concentration of analyte. In addition, several buffer injections were interspersed throughout the injection series. Select buffer injections were used along with the reference cell responses to correct the raw data sets for injection artifacts and/or nonspecific binding interactions, commonly referred to as “double referencing”. Corrected binding data were globally fit to a 1:1 binding model (Biacore T200 Evaluation software 2.0, GE Healthcare, Pittsburgh, PA).
(§4) Kinetic measurements to soluble monomeric forms of EGFR and cMET were performed using a BIACore instrument.

[6] = biological target: T4, cynomolgus monkey cMET (recombinant, soluble monomeric) (cynomolgus monkey, UniProt A0M8R7 25-932 (Papio anubis entry)); experiment: as above
T4 construct: also called cyno cMET
Procedure: as §3, §4

[7] = biological target: T5, cynomolgus monkey EGFR (recombinant, soluble monomeric) (cynomolgus monkey, UniProt P55245 25-645 (rhesus entry)); experiment: as above
T5 construct: also called cyno EGFR
Procedure: as §3, §4

[8] = biological target: T6, human EGFR (recombinant, soluble monomeric) (human, UniProt P00533 25-645); experiment: as above
T6 construct: also called EGFR antigen
Procedure: as §3, §4

[9] = biological target: T7, human cMET (recombinant, soluble monomeric) (human, UniProt P08581 25-932); experiment: as above
T7 construct: also called cMET antigen; His-tagged cMET antigen
Procedure: as §3, §4

T7 sequence (P08581 25-932): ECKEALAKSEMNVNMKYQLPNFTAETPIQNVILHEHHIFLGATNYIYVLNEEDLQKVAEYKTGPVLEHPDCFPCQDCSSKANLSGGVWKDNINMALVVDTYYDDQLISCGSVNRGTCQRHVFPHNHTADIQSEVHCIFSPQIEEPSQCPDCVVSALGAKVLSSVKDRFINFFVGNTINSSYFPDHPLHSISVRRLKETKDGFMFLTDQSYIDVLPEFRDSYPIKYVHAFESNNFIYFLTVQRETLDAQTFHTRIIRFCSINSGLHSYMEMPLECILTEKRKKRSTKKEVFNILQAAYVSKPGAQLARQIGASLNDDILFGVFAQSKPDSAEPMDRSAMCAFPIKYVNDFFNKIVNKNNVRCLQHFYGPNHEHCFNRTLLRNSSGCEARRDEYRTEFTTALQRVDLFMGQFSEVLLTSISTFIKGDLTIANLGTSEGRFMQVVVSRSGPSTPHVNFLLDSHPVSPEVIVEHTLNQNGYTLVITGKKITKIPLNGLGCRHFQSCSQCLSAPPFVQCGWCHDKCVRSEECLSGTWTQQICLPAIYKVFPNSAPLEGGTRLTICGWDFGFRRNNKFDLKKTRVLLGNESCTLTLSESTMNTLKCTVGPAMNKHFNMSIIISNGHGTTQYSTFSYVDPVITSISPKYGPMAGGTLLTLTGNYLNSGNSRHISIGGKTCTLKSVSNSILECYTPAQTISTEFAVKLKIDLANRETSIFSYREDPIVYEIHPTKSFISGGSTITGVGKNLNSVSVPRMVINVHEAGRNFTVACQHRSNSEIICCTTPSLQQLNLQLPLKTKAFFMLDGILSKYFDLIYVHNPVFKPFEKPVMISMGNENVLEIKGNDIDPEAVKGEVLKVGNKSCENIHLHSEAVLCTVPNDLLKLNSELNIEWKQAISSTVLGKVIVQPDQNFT
T4 sequence (A0M8R7 25-932 S170N/I621T): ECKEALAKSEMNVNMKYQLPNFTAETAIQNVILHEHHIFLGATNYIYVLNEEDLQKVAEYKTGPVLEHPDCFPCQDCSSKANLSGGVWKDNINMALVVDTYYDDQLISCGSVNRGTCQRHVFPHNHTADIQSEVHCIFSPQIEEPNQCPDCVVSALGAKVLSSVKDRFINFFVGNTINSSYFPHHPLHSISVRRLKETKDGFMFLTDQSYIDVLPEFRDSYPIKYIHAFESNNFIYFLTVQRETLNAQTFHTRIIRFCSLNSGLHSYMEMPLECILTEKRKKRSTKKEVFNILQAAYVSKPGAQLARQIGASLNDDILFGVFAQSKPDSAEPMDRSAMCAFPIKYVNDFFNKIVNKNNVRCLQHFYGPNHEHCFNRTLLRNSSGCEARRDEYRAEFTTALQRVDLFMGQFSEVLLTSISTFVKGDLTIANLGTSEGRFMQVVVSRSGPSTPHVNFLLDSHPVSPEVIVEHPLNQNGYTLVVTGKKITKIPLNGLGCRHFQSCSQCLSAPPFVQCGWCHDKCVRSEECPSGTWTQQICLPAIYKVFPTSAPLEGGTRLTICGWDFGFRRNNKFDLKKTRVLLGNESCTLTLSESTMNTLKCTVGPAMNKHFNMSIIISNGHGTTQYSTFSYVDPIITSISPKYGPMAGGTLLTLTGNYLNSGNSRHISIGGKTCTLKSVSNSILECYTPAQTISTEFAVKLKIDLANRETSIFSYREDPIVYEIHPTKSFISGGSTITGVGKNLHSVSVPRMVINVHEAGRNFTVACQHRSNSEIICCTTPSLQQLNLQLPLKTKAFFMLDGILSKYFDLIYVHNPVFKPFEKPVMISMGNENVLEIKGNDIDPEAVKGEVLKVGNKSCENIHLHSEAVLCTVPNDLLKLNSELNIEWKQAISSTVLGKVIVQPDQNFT
Chain of mouse cMET (recombinant) (P16056 25-929 limits assumed): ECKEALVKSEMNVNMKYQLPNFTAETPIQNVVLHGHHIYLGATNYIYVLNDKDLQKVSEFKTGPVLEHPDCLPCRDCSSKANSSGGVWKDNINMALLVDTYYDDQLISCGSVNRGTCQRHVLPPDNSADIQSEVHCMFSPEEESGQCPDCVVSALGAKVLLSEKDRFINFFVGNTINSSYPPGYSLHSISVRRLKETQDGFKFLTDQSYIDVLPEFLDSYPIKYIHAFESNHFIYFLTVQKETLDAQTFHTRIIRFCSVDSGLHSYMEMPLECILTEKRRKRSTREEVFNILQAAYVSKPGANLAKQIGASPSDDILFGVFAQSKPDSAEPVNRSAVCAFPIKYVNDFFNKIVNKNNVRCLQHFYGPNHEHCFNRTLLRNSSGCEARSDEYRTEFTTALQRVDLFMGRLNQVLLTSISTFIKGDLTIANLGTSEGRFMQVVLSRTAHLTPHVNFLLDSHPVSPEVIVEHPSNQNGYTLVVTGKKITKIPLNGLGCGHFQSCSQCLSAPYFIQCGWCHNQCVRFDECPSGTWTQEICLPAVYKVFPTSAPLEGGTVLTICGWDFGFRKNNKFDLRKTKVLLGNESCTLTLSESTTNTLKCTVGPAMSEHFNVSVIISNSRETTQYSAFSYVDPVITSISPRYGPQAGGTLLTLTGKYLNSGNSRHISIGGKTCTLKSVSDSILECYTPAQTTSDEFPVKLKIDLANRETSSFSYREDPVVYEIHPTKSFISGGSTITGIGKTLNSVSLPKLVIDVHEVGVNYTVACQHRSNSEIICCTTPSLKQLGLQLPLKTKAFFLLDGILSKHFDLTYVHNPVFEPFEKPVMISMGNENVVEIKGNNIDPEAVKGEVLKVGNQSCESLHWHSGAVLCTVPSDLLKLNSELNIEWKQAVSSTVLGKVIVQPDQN
Chain of c-MET receptor on the cell surface (H1975 cells) (P08581 25-1390): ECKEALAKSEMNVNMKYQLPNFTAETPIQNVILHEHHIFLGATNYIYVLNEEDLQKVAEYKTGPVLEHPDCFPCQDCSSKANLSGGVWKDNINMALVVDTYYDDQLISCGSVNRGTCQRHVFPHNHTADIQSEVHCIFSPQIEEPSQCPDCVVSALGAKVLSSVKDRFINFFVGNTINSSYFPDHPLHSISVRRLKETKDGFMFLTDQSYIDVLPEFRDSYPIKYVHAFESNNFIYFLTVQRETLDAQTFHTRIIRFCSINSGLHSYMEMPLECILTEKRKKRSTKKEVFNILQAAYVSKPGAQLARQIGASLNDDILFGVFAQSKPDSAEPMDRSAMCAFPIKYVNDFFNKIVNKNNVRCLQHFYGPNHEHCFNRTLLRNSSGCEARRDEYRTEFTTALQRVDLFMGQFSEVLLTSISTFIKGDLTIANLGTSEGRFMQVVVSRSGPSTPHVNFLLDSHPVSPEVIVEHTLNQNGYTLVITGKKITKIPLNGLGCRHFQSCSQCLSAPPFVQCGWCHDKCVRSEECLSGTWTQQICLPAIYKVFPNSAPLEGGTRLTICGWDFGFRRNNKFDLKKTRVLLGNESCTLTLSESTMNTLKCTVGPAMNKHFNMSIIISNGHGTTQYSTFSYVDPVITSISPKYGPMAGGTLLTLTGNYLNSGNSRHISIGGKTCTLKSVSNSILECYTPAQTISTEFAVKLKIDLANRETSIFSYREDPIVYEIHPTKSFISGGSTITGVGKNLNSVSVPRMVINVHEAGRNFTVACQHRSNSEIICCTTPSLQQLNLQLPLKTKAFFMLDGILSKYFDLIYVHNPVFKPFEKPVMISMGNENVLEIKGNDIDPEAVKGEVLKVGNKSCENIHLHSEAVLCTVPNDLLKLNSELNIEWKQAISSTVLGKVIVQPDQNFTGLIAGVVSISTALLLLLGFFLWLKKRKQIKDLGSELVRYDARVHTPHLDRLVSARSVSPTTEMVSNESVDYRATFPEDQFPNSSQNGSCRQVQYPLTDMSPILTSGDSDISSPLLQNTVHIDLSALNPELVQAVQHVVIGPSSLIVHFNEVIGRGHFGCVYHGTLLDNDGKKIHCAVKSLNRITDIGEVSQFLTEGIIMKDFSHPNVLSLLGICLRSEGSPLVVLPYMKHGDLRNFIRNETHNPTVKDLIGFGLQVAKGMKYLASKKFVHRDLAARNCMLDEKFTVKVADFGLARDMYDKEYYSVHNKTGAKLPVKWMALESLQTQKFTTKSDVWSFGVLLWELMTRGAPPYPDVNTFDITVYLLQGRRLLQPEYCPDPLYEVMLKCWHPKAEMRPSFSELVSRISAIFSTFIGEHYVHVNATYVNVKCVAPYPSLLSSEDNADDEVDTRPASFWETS

Row | Binder | binding result [1] | binding result [2] | binding result [3] | cytoplasmic intensity (AlexaFluor647, confocal microscopy, H1975 cells): fold higher for RAA22/B09 DuetMab than for B09-IgG [4] | Kd [5] | koff [5] | kon [5] | Kd [6] | koff [6] | kon [6] | Kd [7] | koff [7] | kon [7] | Kd [8] | koff [8] | kon [8] | Kd [9] | koff [9] | kon [9]
1 | B1 | no binding (tested: 10 µg/mL) | no binding (tested: 10 µg/mL) | no binding (tested: 10 µg/mL) | – | – | – | – | – | – | – | – | – | – | – | – | – | – | – | –
2 | B2 | – | – | – | 4.7 fold | – | – | – | – | – | – | – | – | – | – | – | – | – | – | –
3 | B3 | no binding (tested: 10 µg/mL) | no binding (tested: 10 µg/mL) | no binding (tested: 10 µg/mL) | – | 6.2 nM | 0.00078 s⁻¹ | 126000 M⁻¹ s⁻¹ | 2.2 nM | 0.00206 s⁻¹ | 958000 M⁻¹ s⁻¹ | 2.8 nM | 0.000585 s⁻¹ | 210000 M⁻¹ s⁻¹ | 5.9 nM | 0.000374 s⁻¹ | 63500 M⁻¹ s⁻¹ | 1.6 nM | 0.000696 s⁻¹ | 425000 M⁻¹ s⁻¹
